Measured values reported in the RNAGym collection of RNA variant scans (doi:10.7554/elife.80360).

B1: HDV Ribozyme (parent)
chain: GGCCGGCAUGGUCCCAGCCUCCUCGCUGGCGCCGGCUGGGCAACAUUCCGAGGGGACCGUCCCCUCGGUAAUGGCGAAUGGGACCCA

Variants of: B1
Assay: self-cleavage, relative activity (ratio to wild type); higher = more cleavage; co-transcriptional

Point of comparison: A8G U27A, self-cleavage 0.867. Against it:
- C49G C85G — lower, 0.712
- U65A G68C — lower, 0
- U20G C24A — lower, 0.17
- G29A C86U — lower, 0.0314
- G35U C58A — lower, 0.554
- C3A C4G — lower, 0.0225
- C44A C64G — lower, 0.814
- U27C U47G — lower, 0.782
- C33G G54U — lower, 0.0426
- C13U C36U — lower, 0.256
- A16C C57G — lower, 0.646
- A45U A83C — lower, 0.0875
- C13U C84G — higher, 0.969
- U37G C41G — lower, 0.332
- A51U C64U — higher, 0.927
- C24A A43U — lower, 0.258
- C24U G25U — lower, 0.138
- G34C A42G — lower, 0.0554
- G6A C19G — lower, 0
- C24G G40C — lower, 0.0222
- G28U G73A — lower, 0
- U23C G54A — higher, 0.888
- C32G G76C — lower, 0.224
- G1U G55A — lower, 0.208
- C14U G76U — higher, 1.14
- C58A C62U — higher, 1.08
- C21U G50U — lower, 0.141
- G40C A83G — lower, 0.163
- G35A G73U — lower, 0.223
- A16C A87U — lower, 0.615
- C22G U60G — lower, 0
- C66A G68A — lower, 0.805
- A8G A71G — lower, 0.739
- G40C U79A — lower, 0.19
- U23G C26U — higher, 0.997
- A51U C75G — lower, 0.344
- C21A G55U — lower, 0.0554
- A70U G82A — lower, 0.469
- C3G C36A — lower, 0.0288
- C21U A70C — lower, 0.332
- C7A G68C — lower, 0.341
- G1U A70G — lower, 0.536
- G25C U37G — lower, 0.0519
- G52A A77C — lower, 0.309
- G31A A78C — lower, 0.169
- G34U C61G — lower, 0.378
- G10C U60G — higher, 0.95
- G5A U46A — lower, 0
- C32G U47C — lower, 0.0852
- C15U C36G — lower, 0.128
- G5U C18U — lower, 0.0504
- U37G U65C — lower, 0.123
- C61U G81U — lower, 0.273
- G53U C57U — higher, 1.01
- C3U A43C — lower, 0.293
- G11U G82A — lower, 0.0678
- G5U U37C — lower, 0.519
- C13G A87C — lower, 0
- G35C C63A — lower, 0.259
- U20A G55U — lower, 0.0302
- C15U G80U — lower, 0.526
- C19A U60G — lower, 0.0361
- C3U C84G — lower, 0.636
- G67C G68A — higher, 0.955
- U72A G80A — lower, 0.169
- G5A C36A — lower, 0.0627
- G35A G54U — lower, 0.743
- C7G G28A — lower, 0.0536
- C7G G28U — lower, 0.0875
- G25A U46A — lower, 0
- G29A G39U — lower, 0.0432
- C30A C66U — lower, 0.421
- G10U G28A — lower, 0.0791
- C36U C66A — lower, 0.712
- G55C G81C — lower, 0.141
- A42U A43U — lower, 0.604
- A56C U60G — lower, 0.68
- C7G A83G — lower, 0.17
- C61G U79A — lower, 0.739
- C57G A77G — higher, 1.05
- G6A C49G — lower, 0.222
- U9A C61U — higher, 0.986
- U9G A56U — higher, 1.01
- C26G C32U — lower, 0.743
- U65A C75G — lower, 0.19
- G1C G80U — lower, 0.0484
- A8U C58A — lower, 0.862
- C63U C75G — lower, 0.0755
- C18U U47C — lower, 0.332
- C7U G55U — lower, 0.815
- C75U G82U — lower, 0.296
- G38U G67C — lower, 0.197
- U46G U47A — lower, 0.8
- G35A A51C — lower, 0.467
- A51U A87G — higher, 0.965
- G40U C75U — lower, 0.271
- G11C C57U — lower, 0.388
- G35C C75U — lower, 0.0692
- C48G C66G — higher, 0.906
- G54U C57G — higher, 1.1
- U60A A77C — lower, 0.305
- U12A U20G — lower, 0
- U46C C58A — lower, 0.554
- C24U A43C — lower, 0.0739
- U9A G68A — higher, 0.955
- G35A G81U — lower, 0.105
- C13U C63U — lower, 0.696
- C64A A78G — lower, 0.686
- C7U C62G — lower, 0.643
- U20A G38U — lower, 0.122
- C48G U69A — higher, 0.956
- C7G G17A — lower, 0
- A45U G52C — lower, 0.743
- A8G A83G — higher, 0.88
- C36A C63G — lower, 0.208
- G1C C85A — lower, 0.161
- A45G C48U — higher, 0.978
- G50U A56U — higher, 1.06
- U20G G50U — lower, 0.18
- C21G G28A — lower, 0.0744
- U27G U37C — lower, 0.762
- C30U U65A — lower, 0.689
- G2U G80A — lower, 0.0496
- A8C G67U — lower, 0.739
- G2U A42U — lower, 0.0647
- G29A C32U — lower, 0.218
- G1C C66A — lower, 0.19
- A42C A71C — lower, 0.332
- A42C A71U — lower, 0.166
- G59A G76U — higher, 1.21
- G74C U79C — lower, 0.181
- C41A A45U — higher, 0.872
- C18A G50C — lower, 0.219
- G50A U60C — higher, 0.945
- C15A A87U — lower, 0.746
- C26G C48U — higher, 0.877
- C36A U37C — lower, 0.489
- C26A U60C — lower, 0.81
- C15U C63G — lower, 0.776
- G29A G76C — lower, 0.256
- C58A G74C — lower, 0.324
- G34A A43C — lower, 0.119
- C48U A83C — higher, 0.906
- G2A G74A — lower, 0.0457
- C21A C58U — lower, 0.0627
- G81C A87G — lower, 0.306
- C44U G52A — lower, 0.831
- U37G C57U — lower, 0.0405
- A45C U46C — lower, 0.403
- G2U G40C — lower, 0.0455
- A77U G82A — lower, 0.271
- G73A G74A — lower, 0.248
- A70U — higher, 0.953
- C84A — higher, 0.895
- C7A C75U — lower, 0.131
- C58U G68U — higher, 1.07
- A45C G52U — lower, 0.697
- G34U G35C — lower, 0.154
- G50A U69A — higher, 1.01
- G17A C26G — lower, 0.793
- C64G C75A — lower, 0.201
- C7U G28C — lower, 0.237
- G6U G53U — lower, 0.643
- G54C A70G — higher, 1.07
- G5U C44G — lower, 0.217
- U72A G81C — lower, 0.0898
